Measured values published in PMC6379675, “Structural insights into chromosome attachment to the nuclear envelope by an inner nuclear membrane protein Bqt4 in fission yeast” (Nucleic Acids Research, 2018).

T1: Bqt4_(2–140), N-terminal domain of Bqt4 (S. pombe, UniProt O60158 2-140)
T1 chain: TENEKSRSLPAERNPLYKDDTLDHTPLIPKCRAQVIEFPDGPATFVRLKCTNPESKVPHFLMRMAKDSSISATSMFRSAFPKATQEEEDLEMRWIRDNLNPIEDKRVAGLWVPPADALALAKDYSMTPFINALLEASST

T2: Bqt4_(2–180) (S. pombe, UniProt O60158 2-180)
T2 chain: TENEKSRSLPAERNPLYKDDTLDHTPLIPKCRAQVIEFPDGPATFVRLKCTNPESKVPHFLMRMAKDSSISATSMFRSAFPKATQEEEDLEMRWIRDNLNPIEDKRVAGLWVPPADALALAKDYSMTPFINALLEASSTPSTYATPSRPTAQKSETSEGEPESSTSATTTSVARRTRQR

T3: Bqt4_(2–140), N-terminal domain of Bqt4 (S. pombe, UniProt O60158 2-140)
T3 construct: Bqt4, S. pombe inner nuclear membrane protein, residues 2-140; also called Bqt4NTD; Bqt4NTD^WT; source: E. coli BL21(DE3), purified (Ni-NTA, on-beads Ulp1 digestion, Superdex200); not shown: His6, N-terminal, cleaved; SUMO, N-terminal, cleaved
T3 sequence (looked up): T1 chain

B1: Rap1_(479–527) S496E (domain or fragment, S. pombe, UniProt Q96TL7 479-527, looked up)
chain: EIPLLSDYSDSENISEKESDDEEAFEKQVTSSYSSPIKVKSQGKSSKGS
notes: phosphomimetic; also called Rap1^S496E; source: E. coli BL21(DE3), purified (glutathione-Sepharose 4B, on-beads 3C digestion, Superdex75); not shown: GST, N-terminal, cleaved
B2: Rap1_(220-606) (protein)
chain: SVSKSENKALVNNKRYSDSYFYFSKMRRISIDVDYVDEDLNLINAYLSQFGKKRSLNELCALLSRRFSNRHTFSEWRALFMHFFPFINSEGVDPAILSDRETSAMLDETSDNEVADIDDQMIERKYLFSASEPNTVKSTNRLIFSERKAYAADDSIDNTPSKVPIVNSLSDPRTNRPFFYSNPDSMYRSISNPLHLVDSQHLSPLNRKTHFNNPIGQPQFTCLDDHEKTLRETSFRSLDDMSLRKSNSDNIFVKPGEDLEIPLLSDYSDSENISEKSSDDEEAFEKQVTSSYSSPIKVKSQGKSSKGSSGLDVREHEGSDDDAEVFVDRSPESFGATKVAHTSLEGNAASHKKVEENMQQPVTKKQKKYRMVNEEAHTGPTIIIPSD
B3: Rap1_(468-541) (protein)
chain: DNIFVKPGEDLEIPLLSDYSDSENISEKSSDDEEAFEKQVTSSYSSPIKVKSQGKSSKGSSGLDVREHEGSDDD
B4: Rap1_(403-541) (protein)
chain: DSMYRSISNPLHLVDSQHLSPLNRKTHFNNPIGQPQFTCLDDHEKTLRETSFRSLDDMSLRKSNSDNIFVKPGEDLEIPLLSDYSDSENISEKSSDDEEAFEKQVTSSYSSPIKVKSQGKSSKGSSGLDVREHEGSDDD
B5: Rap1_(490-541) (protein)
chain: ENISEKSSDDEEAFEKQVTSSYSSPIKVKSQGKSSKGSSGLDVREHEGSDDD
B6: Rap1_(468-519) (protein)
chain: DNIFVKPGEDLEIPLLSDYSDSENISEKSSDDEEAFEKQVTSSYSSPIKVKS
B7: Rap1_(468-527) (protein)
chain: DNIFVKPGEDLEIPLLSDYSDSENISEKSSDDEEAFEKQVTSSYSSPIKVKSQGKSSKGS

Target: T1, Bqt4_(2–140), N-terminal domain of Bqt4
Assay: ITC
Conditions: not given

| Kd | Binder |
| --- | --- |
| 2.4 µM | B1 |
| 7.1 µM | EIPLLSDYSDSENISEKSSDDEEAFEKQVTSSYASPIKVKSQGKSSKGS [Rap1_(479-527) S512A] |
| 8 µM | EIPLLSDYSDSENISEKAADDEEAFEKQVTSSYSSPIKVKSQGKSSKGS [Rap1_(479-527) S496A/S497A] |
| 9.5 µM | EIPLLSDYSDSENISEKSADDEEAFEKQVTSSYSSPIKVKSQGKSSKGS [Rap1_(479-527) S497A] |
| 27.2 µM | EIPLLSDYSDSENISEKSSDDEEAFEKQVTSSYESPIKVKSQGKSSKGS (domain or fragment) [Rap1_(479–527) S512E] |
| 7.9 µM | EIPLLSDYSDSENISEKSSDDEEAFEKQVTSSYSAPIKVKSQGKSSKGS [Rap1_(479-527) S513A] |
| 7.3 µM | EIPLLSDYSDSENISEKSSDDEEAFEKQVTSSYAAPIKVKSQGKSSKGS [Rap1_(479-527) S512A/S513A] |
| 10.6 µM | EIPLLSDYSDSENISEKASDDEEAFEKQVTSSYSSPIKVKSQGKSSKGS [Rap1_(479-527) S496A] |

Target: T1, Bqt4_(2–140), N-terminal domain of Bqt4
Assay: ITC
Conditions: not given
Remark: another data set of the same source

| Kd | Binder |
| --- | --- |
| 862 µM | EIPLLSDYSDSENISEKSSDAAEAFEKQVTSSYSSPIKVKSQGKSSKGS (domain or fragment) [Rap1_(479–527) D499A/E500A] |
| 106 µM | EIPLLSDYSDSENISEKSSDDEEAAEKQVTSSYSSPIKVKSQGKSSKGS (domain or fragment) [Rap1_(479–527) F503A] |
| 138 µM | EIPLLSDYSDSENISEKSSDDEEAFEKQATSSYSSPIKVKSQGKSSKGS (domain or fragment) [Rap1_(479–527) V507A] |

Target: T2, Bqt4_(2–180)
Assay: ITC
Conditions: not given

| Kd | Binder |
| --- | --- |
| 12.9 µM | B2 |
| 7.9 µM | B3 |
| 5.4 µM | B4 |
| 15.3 µM | KSSDDEEAFEKQVTSSYSSPIKVKSQGKSSKGS [Rap1_(495-527)] |
| 9.7 µM | B5 |
| 10.8 µM | B6 |
| 8.7 µM | B7 |

Target: T1, Bqt4_(2–140), N-terminal domain of Bqt4
Assay: ITC
Conditions: not given
Remark: another data set of the same source

| Kd | Binder |
| --- | --- |
| 13.7 µM | B2 |
| 5.7 µM | B3 |
| 4.8 µM | B4 |
| 14.7 µM | KSSDDEEAFEKQVTSSYSSPIKVKSQGKSSKGS [Rap1_(495-527)] |
| 8.3 µM | B5 |
| 6.6 µM | B6 |
| 5.8 µM | B7 |

Target: T3, Bqt4_(2–140), N-terminal domain of Bqt4
Assay: ITC; ITC200; peptide (Rap1 479-527 at 1000–1500 μM) titrated into Bqt4 2-140 (100–150 μM), 20°C, 20 mM Tris–HCl pH 8.0, 150 mM NaCl; one binding site model; two independent experiments
Conditions: both partners purified

| binding result | Binder |
| --- | --- |
| binds | B1 |
